The numbers were not newly measured in publication PMC6716120, which cites them from elsewhere.

The target in this series is hexon (Human adenovirus 5) (UniProt P04133).
Sequence of hexon (Human adenovirus 5) (P04133 2-952): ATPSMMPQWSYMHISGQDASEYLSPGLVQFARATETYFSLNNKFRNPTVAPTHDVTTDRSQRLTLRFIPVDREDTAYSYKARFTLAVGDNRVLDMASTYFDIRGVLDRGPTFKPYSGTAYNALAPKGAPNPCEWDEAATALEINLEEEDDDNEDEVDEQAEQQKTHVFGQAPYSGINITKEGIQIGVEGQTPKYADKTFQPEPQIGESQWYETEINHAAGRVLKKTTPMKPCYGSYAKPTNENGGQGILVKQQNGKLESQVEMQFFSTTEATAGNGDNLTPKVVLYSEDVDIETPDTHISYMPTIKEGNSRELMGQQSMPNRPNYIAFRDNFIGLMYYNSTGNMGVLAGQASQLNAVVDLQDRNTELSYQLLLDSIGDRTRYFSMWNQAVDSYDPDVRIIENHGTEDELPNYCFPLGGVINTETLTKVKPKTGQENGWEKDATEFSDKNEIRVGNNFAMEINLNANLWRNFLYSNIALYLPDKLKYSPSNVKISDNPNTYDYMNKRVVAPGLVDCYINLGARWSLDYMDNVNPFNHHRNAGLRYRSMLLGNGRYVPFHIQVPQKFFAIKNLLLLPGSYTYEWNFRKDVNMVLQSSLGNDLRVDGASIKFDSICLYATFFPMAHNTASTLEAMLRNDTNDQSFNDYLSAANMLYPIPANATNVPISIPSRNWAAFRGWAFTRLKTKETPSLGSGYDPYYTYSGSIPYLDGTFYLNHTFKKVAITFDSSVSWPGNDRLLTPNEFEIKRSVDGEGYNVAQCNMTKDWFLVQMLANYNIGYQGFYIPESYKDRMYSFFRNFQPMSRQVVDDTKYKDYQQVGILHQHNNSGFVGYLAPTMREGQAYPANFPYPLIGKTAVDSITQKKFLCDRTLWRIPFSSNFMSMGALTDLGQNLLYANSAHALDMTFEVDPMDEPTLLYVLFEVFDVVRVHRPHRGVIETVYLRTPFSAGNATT

Sequence of coagulation factor X (P00742 41-488): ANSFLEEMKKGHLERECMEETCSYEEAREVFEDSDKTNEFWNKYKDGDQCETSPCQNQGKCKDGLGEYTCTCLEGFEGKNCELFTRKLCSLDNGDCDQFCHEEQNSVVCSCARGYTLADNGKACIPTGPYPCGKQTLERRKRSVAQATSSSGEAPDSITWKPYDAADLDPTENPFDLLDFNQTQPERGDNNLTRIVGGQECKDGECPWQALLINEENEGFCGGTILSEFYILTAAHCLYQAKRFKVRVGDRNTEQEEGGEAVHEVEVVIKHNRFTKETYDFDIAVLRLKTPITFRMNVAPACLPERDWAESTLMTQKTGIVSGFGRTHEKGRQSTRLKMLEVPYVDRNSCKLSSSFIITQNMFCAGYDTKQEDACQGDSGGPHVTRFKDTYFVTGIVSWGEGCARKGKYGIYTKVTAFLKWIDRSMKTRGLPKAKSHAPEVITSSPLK

On to “coagulation factor X (from UniProt P00742)”, for which the dissociation constant Kd (in general, a measure of binding affinity in units of concentration) is 2 nM.
